Data reported in the DeepSol protein solubility set.

Assay: soluble on expression in E. coli; label from the status in PepcDB or PDB records

Row | Sequence | soluble on expression in E. coli
1 | MSLSIIVASTMSDSGKSFITTGLVRILNAKPLKIQNMSLNSISTWDGGEIAFIQAYQAWGAGLRPERYMNPILLKIMGKGLEVIFMGSSLGIMSGNEYYNLATEKLWKKVSQFLSNDVVIEAAGGIGEPNFIDKDITAIKVMKEKRIPAILVLDIDRGGAFASAYGTYMMLPQSVRENLKGFIINKFRGDEKFLNDAIKWLEEKTGMRYLGYLPFFSEPPIMPEDSMNVYNFGDGNVEVAIIAYPYMSNFNEFYALVKSNARVSFVRKPKETAKADLVILPGSRNTLESLKWLVENGFVEQLRQRSMNILGICGGFQILGKKIVDPYGIEAGYPTEYEGLGIFDINVHYSKDKVVSMTTGISEYGEMNGYEIRRGVIKYMGEKPLLKITLRNGEKVSVEDGAKKDNIIGISVHGTLFSDGMKKLLKEFNINIHSQSMEEEIKQQAIRVEQFLRKYLHIDEIVEIYKEGHHHHHH | not soluble
2 | MSLSIKMRLGKEFLIDDLKRIEAMRNHLADNIMLMADANEAWRIDQAVIAFKEIEKFNLVWLEEPIKPDDFKGYSYLRSLGKIPIAAGENLHNLAEFNQLIDVNGVDFLEPDLTTCGGITPFMKVAKLAEVNNLPVCSHGVHELHVHLLASCPNASYLEFHAWRIDEFIDSPLKVLNGYTEAPDLPGHGINFDFEKVEKYNVGEGHHHHHH | not soluble
3 | MSLSILVTGATGTIGSLVTQGLASAGADVKAMVRQPGKRDFPAGVTEVVADLTDVSSMRVALSSVRTLFLLNAVTPDEVTQALIALNLAQEAGIERIVYLSVIHADTFTNVPHFTGKYTVERMIESLDIPATILRPAYFMQNDLMVQQTIQSYSVYPMPIGSAGVSMIDARDIADVAVAELLRRDEASSALDLVTLELVGPQALTGASVAQTWSSALDREIAYGGDDVAAFEGQLASYGPGWLAYDMRLMMAGIQKFGMQAAEGAVERLEAIIGHPLRSYEGFVREATAGEGHHHHHH | soluble
4 | MSLSIQSGEILETVKMVADQNFDVRTITIGIDLHDCISSDINVLNQNIYNKITTVGKDLVTTAKYLSAKYGVPIVNQRISVTPIAQIAAATHADSYVSVAQTLDKAAKAIGVSFIGGFSALVQKGMSPSDEVLIRSIPEAMKTTDIVCSSINIGSTRAGINMDAVKLAGETVKRTAEITPEGFGCAKIVVFCNAVEDNPFMAGAFHGSGEADAVINVGVSGPGVVKAALENSDATTLTEVAEVVKKTAFKITRVGELIGREASKMLNIPFGILDLSLAPTPAVGDSVARILEEMGLSVCGTHGTTAALALLNDAVKKGGMMASSAVGGLSGAFIPVSEDEGMIAAAEAGVLTLDKLEAMTAVCSVGLDMIAVPGDTPAHTISGIIADEAAIGMINSKTTAVRIIPVTGKTVGDSVEFGGLLGYAPVMPVKEGSCEVFVNRGGRIPAPVQSMKNEGHHHHHH | soluble
5 | MSLSISEKPLSELLRPKDFEDFVGQDHIFGNKGILRRTLKTGNMFSSILYGPPGSGKTSVFSLLKRYFNGEVVYLSSTVHGVSEIKNVLKRGEQLRKYGKKLLLFLDEIHRLNKNQQMVLVSHVERGDIVLVATTTENPSFVIVPALLSRCRILYFKKLSDEDLMKILKKATEVLNIDLEESVEKAIVRHSEGDARKLLNTLEIVHQAFKNKRVTLEDLETLLGNVSGYTKESHYDFASAFIKSMRGSDPNAAVYYLVKMIEMGEDPRFIARRMIIFASEDVGLADPNALHIAVSTSIAVEHVGLPECLMNLVECAVYLSLAPKSNSVYLAMKKVQELPVEDVPLFLRNPVTEEMKKRGYGEGYLYPHDFGGFVKTNYLPEKLKNEVIFQPKRVGFEEELFERLRKLWPEKYGGESMAEVRKELEYKGKKIRIVKGDITREEVDAIVNAANEYLKHGGGVAGAIVRAGGSVIQEESDRIVQERGRVPTGEAVVTSAGKLKAKYVIHTVGPVWRGGSHGEDELLYKAVYNALLRAHELKLKSISMPAISTGIFGFPKERAVGIFSKAIRDFIDQHPDTTLEEIRICNIDEETTKIFEEKFSEGHHHHHH | soluble
6 | MSLSIYKDINIASAKPSLKERKNIKHYALDHLNIDEKNNAPLFKTLLEDAMRVSSKEILLIVGGSSFYLKSILEGLSRMPKLSGEEVVKIEREIATLSNPYIFLKSIDPNMAFKIHPNDTYRTHKALEIFYATCTPPSEYFKANPKKPFEHAISLFALSIEKSALHNNIKRRTKNMLHSGLVEEIKALYTQYPKDSQPFKAIGVKESVLFLEKRLTLKELEEAITSNTMKLAKRQNTFNKTQFNNLYVGSAEEVRHAILKHSKSGIKGEGHHHHHH | not soluble
7 | MSLSKELAVTPKQSLEAVVSYFRSAHKEPDSAVRAIHHQPASEGEFSEMPAAVDSRLRAALAKRGIERLYTHQADAFDQIQAGKHVVIVTPTASGKTLCYNLPVLNLLLRDEGARAMYLFPTKALAEDQLHEFQGAVEEMGSEIRAFTYDGDTPQDARRAIRSRANVVLTNPDMLHSGILPHHTRWARYFENLRYIVIDELHYYRGVYGSHLANLLRRLSRICEFYNSKPQFICCSATIANPKELAEALTGEPFELVERNGAPRGEKFFIFYNPPVVNRQLGIRRSYIAETRRMALKFIENNLQTLVFANNRLATEVLVTYLKDACDRGPIPSETVRGYRGGYLPRERREIEQSLRAGKIRAVVATNALELGIDIGSLDAVVMAGYPGTIASSWQRAGRAGRRQSTSAAVMVASSAPLDQYIVEHPDYFFGRSPEHAYINPENLEIFLAHLKCAAFELPLRDDEKFGRHDLAEICRYLEEAGFLHHSAAAWHWTSDTYPADATSLRSVTSDNFVVVDITGEAKVIAEVSFPTALTTLHEKAIYLHEARQFHVERFDYDQRKAYVKSVDCDYYTDAIDYTQVKVLEEMEGEPQNGARRLHGDVRVTRQIVGFKKIKFYTMENVGAGKLNMPEQEMHTTAFWLHFPAAFLARFAEFTPTEKQSGISGLGNALRTVASLLLMCDPRDLGVALSEEIAGGLEAFEPNLYLYDNYPGGIGQSGPLYRLAPQLLRQTAGLLAACACEAGCPSCVGPSGETGERGKLVAARILAELMGTAEQITAEGHHHHHH | soluble
8 | MSLSKIIPFREEIFHQINQILESQKAFIFLWGKSGSGKSVLLQRLAKKYNVDFINENFKDQSFLKEKIEFLISQGQSLIILDEVGMYDYAMLESIRIYSDSISFVLSSHKKLNILKKEHFKSRLSACFKLKNISLLELDDYIKLKFGMNFSNKCLKFLQKISQGNLRYIDKTLKSFYEINSFFDKNKSQEYILKLSALENGLLREGHHHHHH | soluble
9 | MSLSKKTQINLKIERAKEEDLPKLVDLYLRAYKGLEEYAYTHPKDVKSYLKWLWNRDKEGIFLAKVDGKIVGFGAGDANWFSRREGKRVGAIHEIVVDPEYQGHGVGTALMNTILEYFKKKGLDTAELWVGDENYKAINFYKKFGFQESGRYNYWIRMIKGIITITTDPNSSSVDKLAAALEHHHHHH | soluble
10 | MSLSKLKVSVFSKHLQFLQGEELAKATAAIGFDGVDLAVRKGGHVEPATVAKDLPALVAILRKNGLEVPMITTDIADTDTPFTEDLLKAASALGIRYYRFGAYKWSAEKPYAAQLEIMKPKLAKLAALNAKYQMCAMYHTHSGVGVVGASIWDLWYMMKDLDPKLMGMNYDVGHATIEGGLGGWIDSFKIAGNYVRGIAVKDFAWEKDPKGGQRSQWKPIGEGTVKFPQFYGMVAATDFAGPFQMHFEYPLGGANNGTRTLTVPKEEVHAAMKKDLDKTRAMLAQAGLEGHHHHHH | not soluble
11 | MSLSLRRIDHVSLRVRDVEEASRRWSAQFGLAVRERDGRRARLACDDEPYCLELLAAEAPGVEHVAYELRRSCTLEEAGRHFEGLGVPYEEHAGGLRVADPDGNRVLVLPYREPRERWVSHARAATDQIVGHPRRLGHVNFLTGRLSEGVEFYTRALGMRITDWLGEGGVWFHINADHHVMALVDKGYPHFHHLAFDVVDIGQMRVALDHLGRHGRWLGWGPVRHGIGGNIASYVRIVEEECFVELYCDMEQLEADHEVRRWPDNRFSSNTWGPLPPRSYFRFDEAAVASERESLEMLGHPLKEEVSSEGHHHHHH | soluble
12 | MSLSLSHFRITRFQFARDRVIGDSQVRADDVNVAALELVSESGEVGLGFIQTLFNPLPDQQEIESVFEHEVWPSLKGNRAIALVHRVNRPRGGNQRAYSLPFHEAVQVALWDLAAKEAGLPLHVLLGSRRNRVKAYASGLDFHLDDDAFVSLFSHAASIGYSAFKIKVGHRDFDRDLRRLELLKTCVPAGSKVMIDPNEAWTSKEALTKLVAIREAGHDLLWVEDPILRHDHDGLRTLRHAVTWTQINSGEYLDLQGKRLLLEAHAADILNVHGQVTDVMRIGWLAAELGIPISIGNTFLEAGVHMAVALPEVEWLEYSFQNFDHLVEQPIEIRDGYAYAPDRPGHGLVLSEKARGEWSRPRRLARSELGAAPENPRLPAKEGHHHHHH | soluble
13 | MSLSNKIVLTSPDRKTTRLLEKVRKEYDFKIDAYEATFDDAVELIRGKVAHREHWDPIIATGGATLGLLRDNLGRMPWVNIFPTEYDLVIALEQAKKTKKTIGLFNPGQIDTEAIKAVCSAIQIDAHIYRYNSWKEVLVQVEKAYQDGVEVAIGAGEKISSAVERKNIQYVSVTSGEYTIRRAFKYAQLLVDLKRNEKVSHEEGHHHHHH | not soluble
14 | MSLSPVPPPLVRVAPSLFLGSARAAGAEEQLARAGVTLCVNVSRQQPGPRAPGVAELRVPVFDDPAEDLLAHLEPTCAAMEAAVRAGGACLVYCKNGRSRSAAVCTAYLMRHRGLSLAKAFQVGGPLGGRCFERGVSSGDEFSGRGRLRDWDRHFREGRVSLMVKSARPVAEPNPGFWSQLQKYEEALQAQSEGHHHHHH | not soluble
15 | MSLSQDGLLGEVLSEGVLTLTLGRAPAHPLSRAMIAALHDALRRAMGDDHVHVLVIHGPGRIFCAGHDLKEIGRHRADPDEGRAFVTDLFEACSALMLDLAHCPKPTIALVEGIATAAGLQLMAACDLAYASPAARFCLPGVQNGGFCTTPAVAVSRVIGRRAVTEMALTGATYDADWALAAGLINRILPEAALATHVADLAGALAARNQAPLRRGLETLNRHLELPLEQAYALATPVMVEHFMDPGRRHLDWIDEGHHHHHH | soluble
16 | MSLSQRTYGYGRVSTDEQTTSQQLTAIREAGHKVSDNRFIVDEGVSGGVCAMERPAFRNLVENKLEKGDTLVIAKLDRLGRDNIDVQQVVQMLTDKGIKLFILDLPVADLSSPEGKLMLQMFATFAEFEKNRISERIRDKLKQLKQEGKALGRPTKNVYDDVQELKAQGISQRTIADKLNVSLSTVRRNWVDTKRSLEVVTESGEGHHHHHH | soluble
17 | MSLSSASSKRSVMTLFSNKDDIYCHQVKIVLAEKGVLYENAEVDLQALPEDLMELNPYGTVPTLVDRDLVLFNSRIIMEYLDERFPHPPLMQVYPVSRAKDRLLMLRIEQDWYPTLAKAENGTEKEKTSALKQLKEELLGIAPIFQQMPYFMNEEFGLVDCYVAPLLWKLKHLGVEFTGTGSKAIKAYMERVFTRDSFLQSVGEAAPKNLMDDKEGHHHHHH | soluble
18 | MSLSSDSGNSSGKTTIEWWNITTTEPAKKLWAQRAKEFEAAHPDVKIKIVTLENEAYKSKMTAQTASGKLPDIYHTWGGGVLEQQIDAGLVEDLTDRVSSWTDTYVPAALAAYRFDSRTYAVPFDIGAVGFWYNKALFKQAGIDTPPTTWSGFLDAVRSLKSAGITPIALAGKEKWPGMYYWAYLSMRVAGLDAMHKAATDADFTGDGFVKAGQHLKDLVALQPFQKGFLGAGYSTPTGEAAAMGNGKAAMELMGQWAPVVEKDAGKGLGKDLGFFSFPAVEGGKGALTEVFGGGGGHAVRKGAPEAAVEFLKFFGEKEFAGKLVKETGLIPVSKDARGALTDPNLTAVSDALNAATGFQLYLDQAYAPAVGQEINDSVAALVAGSKSPQQVTRSVTQVAKSEKSEGHHHHHH | not soluble
19 | MSLSSGEHEASRVLRERDYRWEGTEEEAYKAEGTHFSGARRQTLVGRPAGQEAPAFETRYFEVEPGGYTTLERHEHTHVVMVVRGHAEVVLDDRVEPLTPLDCVYIAPHAWHQIHATGANEPLGFLCIVDSDRDRPQRPDADDLARMCADPAVARRIRTEGHHHHHH | soluble
